Assay results from patent publication US20230357429A1 (JANUX THERAPEUTICS, published 2023).
Read-outs that look alike come from different tables or passages of the source. Where no end group is shown, it is not given here.

T1: Peptide-68 (cysteine pairing not given here; also: biotinylated, site not given here)
T1 construct: mask peptide for the CD3 scFv
T1 peptide: DWCWYSPDNDGLCD

T2: Peptide-75 (cysteine pairing not given here; also: biotinylated, site not given here)
T2 construct: mask peptide for the CD3 scFv
T2 peptide: GSACLGPEWEVCPY

T3: Peptide-71 (cysteine pairing not given here; also: biotinylated, site not given here)
T3 construct: mask peptide for the CD3 scFv
T3 peptide: VDCGPDGDESILCY

T4: Peptide-72 (cysteine pairing not given here; also: biotinylated, site not given here)
T4 construct: mask peptide for the CD3 scFv
T4 peptide: AYCGPEFDESVGCM

T5: Peptide-69 (cysteine pairing not given here; also: biotinylated, site not given here)
T5 construct: mask peptide for the CD3 scFv
T5 peptide: SECLVDLQSDPCYW

T6: Peptide-74 (cysteine pairing not given here; also: biotinylated, site not given here)
T6 construct: mask peptide for the CD3 scFv
T6 peptide: ASQCLGPEWEVCPY

T7: Peptide-67 (cysteine pairing not given here; also: biotinylated, site not given here)
T7 construct: mask peptide for the CD3 scFv
T7 peptide: VYCGPEFDESVGCM

T8: Peptide-66 (cysteine pairing not given here; also: biotinylated, site not given here)
T8 construct: mask peptide for the CD3 scFv
T8 peptide: GSQCLGPEWEVCPY

T9: Peptide-76 (cysteine pairing not given here; also: biotinylated, site not given here)
T9 construct: mask peptide for the CD3 scFv
T9 peptide: YLCGPDADETLACY

T10: Peptide-77 (cysteine pairing not given here; also: biotinylated, site not given here)
T10 construct: mask peptide for the CD3 scFv
T10 peptide: YLCGPDTDETLACY

T11: Peptide-70 (cysteine pairing not given here; also: biotinylated, site not given here)
T11 construct: mask peptide for the CD3 scFv
T11 peptide: YLCGPDGDETLACY

B1: TCE-20 (anti-CD3 scFv S110A; anti-TROP2 wt) (bispecific antibody)
light: DIQLTQSPSSLSASVGDRVSITCKASQDVSIAVAWYQQKPGKAPKLLIYSASYRYTGVPDRFSGSGSGTDFTLTISSLQPEDFAVYYCQQHYITPLTFGAGTKVEIKRTVAAPSVFIFPPSDEQLKSGTASVVCLLNNFYPREAKVQWKVDNALQSGNSQESVTEQDSKDSTYSLSSTLTLSKADYEKHKVYACEVTHQGLSSPVTKSFNRGEC
heavy: not shown
notes: scFv on the Fab heavy chain; also called TCE-20 (S110A)
B2: TCE-38 (anti-CD3 scFv F240A; anti-TROP2 F108A) (bispecific antibody)
light: B1 light
heavy: not shown
notes: scFv on the Fab heavy chain
B3: Peptide-73 (peptide)
peptide: VYCGPEFDESVGCA
modifications: cysteine pairing not given here; also: biotinylated, site not given here
notes: mask peptide for the CD3 scFv

Legend:
Peptide-68 = target: T1, Peptide-68; test: ELISA, TCE on captured biotin-peptide
Peptide-75 = target: T2, Peptide-75; test: ELISA, TCE on captured biotin-peptide
Peptide-71 = target: T3, Peptide-71; test: ELISA, TCE on captured biotin-peptide
Peptide-72 = target: T4, Peptide-72; test: ELISA, TCE on captured biotin-peptide
Peptide-73 [1] = target: B3; test: ELISA, TCE on captured biotin-peptide
Peptide-69 = target: T5, Peptide-69; test: ELISA, TCE on captured biotin-peptide
Peptide-74 = target: T6, Peptide-74; test: ELISA, TCE on captured biotin-peptide
Peptide-67 = target: T7, Peptide-67; test: ELISA, TCE on captured biotin-peptide
Peptide-66 = target: T8, Peptide-66; test: ELISA, TCE on captured biotin-peptide
[2] = target: T12, CD3 (biotinylated CD3 antigen) (human, UniProt P07766 23-126, limits assumed, biotinylated (site not stated)); test: ELISA, TCE on captured biotin-CD3
T12 construct: also called CD3ε; human CD3

Peptide-73 [3] = target: B3; test: ELISA, TCE on captured biotin-peptide
Peptide-76 = target: T9, Peptide-76; test: ELISA, TCE on captured biotin-peptide
Peptide-77 = target: T10, Peptide-77; test: ELISA, TCE on captured biotin-peptide
Peptide-70 = target: T11, Peptide-70; test: ELISA, TCE on captured biotin-peptide
[4] = target: T13, TCE-33 (anti-CD3 scFv F240A; anti-TROP2 wt); test: competition ELISA, TCE on captured CD3
T13 construct: scFv on the Fab heavy chain; also called TCE-33 (F240A)

[5] = target: T14, TCE-32 (anti-CD3 scFv V239A; anti-TROP2 wt); test: competition ELISA, TCE on captured CD3
T14 construct: scFv on the Fab heavy chain

[6] = target: T15, TCE-17 (anti-CD3 scFv S107A; anti-TROP2 wt); test: competition ELISA, TCE on captured CD3
T15 construct: scFv on the Fab heavy chain

[7] = target: T16, TCE-29 (anti-CD3 scFv N236A; anti-TROP2 wt); test: competition ELISA, TCE on captured CD3
T16 construct: scFv on the Fab heavy chain

[8] = target: T17, TCE-13 (anti-CD3 scFv N103A; anti-TROP2 wt); test: competition ELISA, TCE on captured CD3
T17 construct: scFv on the Fab heavy chain; also called TCE-13 (N103A)

[9] = target: T18, TCE-15 (anti-CD3 scFv G105A; anti-TROP2 wt); test: competition ELISA, TCE on captured CD3
T18 construct: scFv on the Fab heavy chain

[10] = target: T19, TCE-19 (anti-CD3 scFv I109A; anti-TROP2 wt); test: competition ELISA, TCE on captured CD3
T19 construct: scFv on the Fab heavy chain

[11] = target: T20, TCE-27 (anti-CD3 scFv Y234A; anti-TROP2 wt); test: competition ELISA, TCE on captured CD3
T20 construct: scFv on the Fab heavy chain

[12] = target: T21, TCE-9 (anti-CD3 scFv V99A; anti-TROP2 wt); test: competition ELISA, TCE on captured CD3
T21 construct: scFv on the Fab heavy chain

[13] = target: T22, TCE-25 (anti-CD3 scFv L232A; anti-TROP2 wt); test: competition ELISA, TCE on captured CD3
T22 construct: scFv on the Fab heavy chain

[14] = target: T23, TCE-11 (anti-CD3 scFv H101A; anti-TROP2 wt); test: competition ELISA, TCE on captured CD3
T23 construct: scFv on the Fab heavy chain; also called TCE-11 (H101A)

[15] = target: T24, TCE-1 (anti-CD3 scFv wt; anti-TROP2 Fab wt); test: competition ELISA, TCE on captured CD3
T24 construct: anti-CD3 scFv fused to the N-terminus of the anti-TROP2 Fab heavy chain; also called TCE-1 (wt)

[16] = target: T25, TCE-16 (anti-CD3 scFv N106A; anti-TROP2 wt); test: competition ELISA, TCE on captured CD3
T25 construct: scFv on the Fab heavy chain

[17] = target: T26, TCE-30 (anti-CD3 scFv R237A; anti-TROP2 wt); test: competition ELISA, TCE on captured CD3
T26 construct: scFv on the Fab heavy chain

[18] = target: T27, TCE-14 (anti-CD3 scFv F104A; anti-TROP2 wt); test: competition ELISA, TCE on captured CD3
T27 construct: scFv on the Fab heavy chain; also called TCE-14 (F104A)

[19] = target: T28, TCE-28 (anti-CD3 scFv S235A; anti-TROP2 wt); test: competition ELISA, TCE on captured CD3
T28 construct: scFv on the Fab heavy chain

[20] = target: T29, TCE-10 (anti-CD3 scFv R100A; anti-TROP2 wt); test: competition ELISA, TCE on captured CD3
T29 construct: scFv on the Fab heavy chain; also called TCE-10 (R100A)

[21] = target: T30, TCE-18 (anti-CD3 scFv Y108A; anti-TROP2 wt); test: competition ELISA, TCE on captured CD3
T30 construct: scFv on the Fab heavy chain

[22] = target: B1; test: competition ELISA, TCE on captured CD3
[23] = target: T13, TCE-33 (anti-CD3 scFv F240A; anti-TROP2 …); test: competition ELISA, TCE on captured CD3; remark: listed apart in the source
[24] = target: T31, TCE-24 (anti-CD3 scFv V231A; anti-TROP2 wt); test: competition ELISA, TCE on captured CD3
T31 construct: scFv on the Fab heavy chain

[25] = target: T32, TCE-12 (anti-CD3 scFv G102A; anti-TROP2 wt); test: competition ELISA, TCE on captured CD3
T32 construct: scFv on the Fab heavy chain

[26] = target: T33, TCE-22 (anti-CD3 scFv W112A; anti-TROP2 wt); test: competition ELISA, TCE on captured CD3; Table 41 run, peptide series with ceiling >100 µM
T33 construct: scFv on the Fab heavy chain; also called TCE-22 (W112A)

[27] = target: T34, TCE-31 (anti-CD3 scFv W238A; anti-TROP2 wt); test: as above
T34 construct: scFv on the Fab heavy chain; also called TCE-31 (W238A)

[28] = target: T29, TCE-10 (anti-CD3 scFv R100A; anti-TROP2 …); test: competition ELISA (IC50 above limit); Table 42 Peptide-73 series (FIGS. 103A-103C), limit >3 µM
[29] = target: B1; test: as above
[30] = target: T17, TCE-13 (anti-CD3 scFv N103A; anti-TROP2 …); test: competition ELISA, TCE on captured CD3; remark: listed apart in the source
[31] = target: T23, TCE-11 (anti-CD3 scFv H101A; anti-TROP2 …); test: competition ELISA, TCE on captured CD3; remark: listed apart in the source
[32] = target: T27, TCE-14 (anti-CD3 scFv F104A; anti-TROP2 …); test: competition ELISA, TCE on captured CD3; remark: listed apart in the source
[33] = target: T35, TCE-39 (anti-CD3 scFv P41S, A49G, N87S, L150F, T151S, G163R, P175A, K181T, T200V, A202D, L208I, G211N, L217I, …); test: competition ELISA, TCE on captured CD3
T35 construct: scFv on the Fab heavy chain

[34] = target: T36, TCE-7 (anti-CD3 scFv wt; anti-TROP2 F108A); test: competition ELISA, TCE on captured CD3
T36 construct: scFv on the Fab heavy chain

[35] = target: B2; test: competition ELISA, TCE on captured CD3
[36] = target: T37, TCE-36 (anti-CD3 scFv H101A; anti-TROP2 F108A); test: competition ELISA, TCE on captured CD3
T37 construct: scFv on the Fab heavy chain

[37] = target: T38, TCE-37 (anti-CD3 scFv F104A; anti-TROP2 F108A); test: competition ELISA, TCE on captured CD3
T38 construct: scFv on the Fab heavy chain

[38] = target: T29, TCE-10 (anti-CD3 scFv R100A; anti-TROP2 …); test: competition ELISA, TCE on captured CD3; Table 40 peptide panel (FIGS. 91-102), limit >100 µM
[39] = target: B1; test: as above

Binder: B1
- EC50 (Peptide-68): 0.16 nM
- EC50 (Peptide-75): 3.82 nM
- EC50 (Peptide-71): 1.92 nM
- EC50 (Peptide-72): 0.76 nM
- EC50 (Peptide-73 [1]): 0.83 nM
- EC50 (Peptide-69): 0.95 nM
- EC50 (Peptide-74): 3.46 nM
- EC50 (Peptide-67): 0.66 nM
- EC50 (Peptide-66): 3.65 nM

Binder: B2
- EC50 [2]: 0.95 nM
- EC50 (Peptide-73 [3]): 8.87 nM
- EC50 (Peptide-76): 222 nM
- EC50 (Peptide-77): 336 nM
- EC50 (Peptide-70): 0.62 nM

Binder: B3
- IC50 [4]: 3020 nM
- IC50 [5]: 60 nM
- IC50 [6]: 100 nM
- IC50 [7]: 230 nM
- IC50 [8]: 820 nM
- IC50 [9]: 310 nM
- IC50 [10]: 420 nM
- IC50 [11]: 620 nM
- IC50 [12]: 160 nM
- IC50 [13]: 650 nM
- IC50 [14]: 1220 nM
- IC50 [15]: 140 nM
- IC50 [16]: 50 nM
- IC50 [17]: 140 nM
- IC50 [18]: 70 nM
- IC50 [19]: 100 nM
- IC50 [20]: > 3000 nM
- IC50 [21]: 110 nM
- IC50 [22]: > 3000 nM
- IC50 [23]: 1900 nM
- IC50 [24]: 230 nM
- IC50 [25]: 230 nM
- IC50 [26]: 39100 nM
- IC50 [27]: 25900 nM
- IC50 [28]: 3000 nM
- IC50 [29]: 3000 nM
- IC50 [30]: 4070 nM
- IC50 [31]: 2930 nM
- IC50 [32]: 200 nM
- IC50 [33]: 40 nM
- IC50 [34]: 60 nM
- IC50 [35]: 4620 nM
- IC50 [36]: 1630 nM
- IC50 [37]: 10 nM
- IC50 [38]: 16800 nM
- IC50 [39]: 2200 nM
